As usually defined, the Kd is the concentration at which binding is half-saturated. Higher therefore signals weaker binding. Broadly, the koff is the first-order rate constant of dissociation. A higher koff goes with a short-lived complex. In general, kon refers to the rate constant with which the complex forms.

Where a chain is given by its changes, count along the chain named.

The values below come from US20210292393A1 (published 2021).

The chains are these.
B1: antibody 368 (antibody, V domains shown)
V domain 1: QITLKESGPTLVKPTETLTLTCAFSGFSLTKTGEAAGWIRQAPGRALEWVTVIFWDDDKRYSPSLQNRLTVTKDTSKNVVVLTMTNVDPVDTATYFCWAMGGPGKEFFGQGTRVAVSS
V domain 2: QSVLTQPPSVSGAPGQRVTVSCTGTSSSIGPYSDVHWYQHIPGKAPRLLIFGTSNRPSGVPARFSGSKSGSSASLVIAGLQAEDEADYYCQSYDSSLGEIYVFGTGTTVTVL
B2: antibody 358 (antibody, V domains shown)
VH: QVQLVESGGGVVQPGRSLRLSCAASGFNLNSYAMHWVRQASGKGLEWVSLMSYDGSIKYYADSVKGRFTVSGDNSRNTLFLQMNSLRPDDSALYYCVRGGVSGPNSFDLWGQGTTVTVSS
VL: DVVMTQSPLSLPVTLGQPASISCRSSQSLVYSDGSTYVNWFQQRPGQSPRRLIYKVSNRDSGVPDRFSGSGSGTDFALKISRVEAEDVGVYYCMQGTHWPVTFGQGTKVEIK
B3: antibody 356 (antibody, V domains shown)
VH: QVQLVQSGAEVKKPGASVKVSCKASGYTFTSYGISWVRQAPGQGLEWMGWISAYHGNTNYAQKLQGRVTMTTDTSTSTAYMELRSLRSDDTAVYYCARVGLWWLGHADAFDIWGQGTMVTVSS
VL: DIQMTQSPSSLSASVGDRVTITCRASQGIRNDLGWYQQKPGKAPKRLIYAASSLQSGVPSRFSGSGSGTEFTLTISSLQPEDFATYYCLQHNSYPLTFGGGTKVEIK
B4: antibody 359 (antibody, V domains shown)
VH: QVQLVESGGGVVQPGRSLRLSCAASGFTFSSYAMHWVRQAPGKGLEWVAVISYDGSNKYYADSVKGRFTISRDNSKNTLYLQMNSLRAEDTAVYYCAYSGNYWYFDLWGRGTLVTVSS
VL: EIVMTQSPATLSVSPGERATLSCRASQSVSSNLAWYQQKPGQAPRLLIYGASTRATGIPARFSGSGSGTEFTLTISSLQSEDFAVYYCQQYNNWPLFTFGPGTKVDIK
B5: antibody 387 (antibody, V domains shown)
VH: QVQLVESGGGVVQPGRSLRLSCAASGFTFSSYGMHWVRQAPGKGLEWVAVISYDGSNKYYADSVKGRFTISRDNSKNTLYLQMNSLRAEDTAVYYCAKDDTKNYGDLDIDYWGQGTLVTVSS
VL: SYELTQPSSVSVSPGQTARITCSGDVLAKKYARWFQQKPGQAPVLVIYKDSERPSGIPERFSGSSSGTTVTLTISGAQVEDEADYYCYSAADNNLGVFGGGTKLTVL
B6: antibody 381 (antibody, V domains shown)
VH: QVQLVESGGGVVQPGRSLRLSCAASGFTFSSYAMHWVRQAPGKGLEWVAVISYDGSNKYYADSVKGRFTISRDNSKNTLYLQMNSLRAEDTAVYYCARDRQYYDILTGYYLPTSEYYFDYWGQGTLVTVSS
VL: DIQMTQSPSSVSASVGDRVTITCRASQGISSWLAWYQQKPGKAPKLLIYAASSLQSGVPSRFSGSGSGTDFTLTISSLQPEDFATYYCQQANSFPPTFGGGTKVEIK
B7: antibody 357 (antibody, V domains shown)
VH: QVQLVQSGAEVKKPGSSVKVSCKASGGTFSSYAISWVRQAPGQGLEWMGRIIPILGIANYAQKFQGRVTITADKSTSTAYMELSSLRSEDTAVYYCARGPIAVAGIGPWFDPWGQGTLVTVSS
VL: QSVLTQPPSVSAAPGQKVTISCSGSSSNIGNNYVSWYQQLPGTAPKLLIYDNNKRPSGIPDRFSGSKSGTSATLGITGLQTGDEADYYCGTWDSSLSAVVFGGGTKLTVL
B8: antibody 360 (antibody, V domains shown)
VH: QVQLVESGGGVVQPGRSLRLSCAASGFTFSSYAMHWVRQAPGKGLEWVAVISYDGSNKYYADSVKGRFTISRDNSKNTLYLQMNSLRAEDTAVYYCAKGKNSGSYFFAFDIWGQGTMVTVSS
VL: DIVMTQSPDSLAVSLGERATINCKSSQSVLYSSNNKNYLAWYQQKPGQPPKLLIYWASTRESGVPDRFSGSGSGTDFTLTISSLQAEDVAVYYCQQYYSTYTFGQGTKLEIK
B9: antibody 415 (antibody, V domains shown)
VH: QVQLVESGGGVVQPGRSLRLSCAASGFTFSSYAMHWVRQAPGKGLEWVAVISYDGSNKYYADSVKGRFTISRDNSKNTLYLQMNSLRAEDTAVYYCAKTRGGSYFDAFDIWGQGTMVTVSS
VL: not shown
B10: antibody 393 (antibody, V domains shown)
VH: QVQLVESGGGVVQPGRSLRLSCAASGFTFSSYAMHWVRQAPGQGLEWVAVISYDGSNKYYADSVKGRFTISRDNSKNTLYLQMNSLRAEDTAVYYCARAGSGSRHYYGMDVWGQGTTVTVSS
VL: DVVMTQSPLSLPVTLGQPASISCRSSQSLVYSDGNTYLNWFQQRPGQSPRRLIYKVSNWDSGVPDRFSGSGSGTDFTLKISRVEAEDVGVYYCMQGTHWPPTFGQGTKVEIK
B11: antibody 399 (antibody, V domains shown)
VH: QVQLVQSGAEVKKPGASVKVSCKASGYTFTSYGISWVRQAPGQGLEWMGWISAYNGNTNYAQKLQGRVTMTTDTSTSTAYMELRSLRSDDTAVYYCARDSGYDWAGGHYYYYGMDVWGQGTTVTVSS
VL: QSALTQPASVSGSPGQSITISCTGTSSDVGGYNYVSWYQQHPGKAPKLMIYEVSNRPSGVSNRFSGSKSGNTASLTISGLQAEDEADYYCSSYTSSSTLVVFGGGTKLTVL
B12: antibody 400 (antibody, V domains shown)
VH: QVQLVESGGGVVQPGRSLRLSCAASGFTFSSYGMHWVRQAPGKGLEWVAVISYDGSNKYYADSVKGRFTISRDNSKNTLYLQMNSLRAEDTAVYYCAKAIDILTGYGPGGMDVWGQGTTVTVSS
VL: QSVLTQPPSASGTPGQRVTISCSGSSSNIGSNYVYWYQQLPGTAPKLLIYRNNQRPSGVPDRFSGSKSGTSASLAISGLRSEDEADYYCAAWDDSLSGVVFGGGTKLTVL
B13: antibody 433 (antibody, V domains shown)
VH: QVQLVESGGGVVQPGRSLRLSCAASGFTFSSYAMHWVRQAPGKGLEWVAVISYDGSNKYYADSVKGRFTISRDNSKNTLYLQMNSLRAEDTAVYYCAKDYEVVIAIGGPGAFDYWGQGTLVTVSS
VL: SYVLTQPPSVSVAPGKTARITCGGNNIGSKSVHWYQQKPGQAPVLVIYYDSDRPSGIPERFSGSNSGNTATLTISRVEAGDEADYYCQVWDSSSDHVVFGGGTKLTVL
B14: antibody 394 (antibody, V domains shown)
VH: QVQLVQSGAEVKKPGASVKVSCKASGYTFTGYYMHWVRQAPGQGLEWMGWINPNNGGTNSAQKFQGRVTMTRDTSISTAYMELNRLRSDDTAVYYCARDITTTAGTDYYYGMDVWGQGTTVTVSS
VL: SYELTQPPSVSVSPGQTARITCSGDALPKQYAYWYQQKPGQAPVLVICKDSERPSGIPERFSGSSSGTTVTLTISGVQAEDEADYYCQSADSSGTYIVFGTGTKVTVL
B15: antibody 397 (antibody, V domains shown)
VH: QVQLVESGGGVVQPGRSLRLSCAASGFTFSSYGMHWVRQAPGKGLESVAVISYDGSNKYYADSVKGRFTISRDNSKNTLYLQMNSLRAEDTAVYYCAKEGQWELQGNAFDIWGQGTMVTVSS
VL: B14 VL with C48Y, A90G, I97R, T101G, V105L
B16: antibody 441 (antibody, V domains shown)
VH: EVQLVESGGGVVRPGGSLRLSCAASGFTFGDYGMSWVRQAPGKGLEWVSGINWNGGSTGYADSVKGRFTISRDNAKNSLYLQMNSLRAEDTALYYCASDLVRGVIGFDYWGQGTLVTVSS
VL: B14 VL with C48Y, T95I, Y96T, I97G, T101G, V105L
B17: antibody 440 (antibody, V domains shown)
VH: EVQLLESGGGLVQPGGSLRLSCAASGFTFSSYAMSWVRQAPGKGLEWVSAISGSGVNTYHADSVKGRFTISRDNSRNTLYLQMSSLTAEDTAAYYCAKDFEAASGAYYYYGMDVWGQGTTVTVSS
VL: B14 VL with K29D, L45V, C48Y, S51R, S65N, G94A, I97V, T101G, V105L
B18: antibody 391 (antibody, V domains shown)
VH: EVQLVESGGGLVQPGGSLRLSCAASGFTFSSYWMHWVRQAPGKGLVWVSRINSDGSSTSYADSVKGRFTISRDNAKNTLYLQMNSLRAEDTAVYYCALGPLDIVGSYYYYGMDVWGQGTTVTVSS
VL: NFMLTQPHSVSESPGKTVTISCTGSSGSIASNYVQWYQQRPGSAPTTVIYEDNQRPSGVPDRFSGSIDSSSNSASLTISGLKTEDEADYYCQSYDSSNQDVVFGGGTKLTVL
B19: antibody 402 (antibody, V domains shown)
VH: QVQLVQSGAEVKKPGASVKVSCKVSGYTLTELSMHWVRQAPGKGLEWMGGFDPEDVETIYAQKFQGRVTMTEDTSTDTAYMELSSLRSEDTAVYYCATGVAVVGTSHSYYYYYGMDVWGQGTTVTVSS
VL: DIQMTQSPSSLSASVGDRVTITCRASQGISNYLAWYQQKPGKVPKLLIYAASTLQSGVPSRFSGSGSGTDFTLTISSLQPEDVATYYCQKYNSAPFTFGPGTKVDIK
B20: antibody 410 (antibody, V domains shown)
VH: QVQLVQSGAEVKKPGASVKVSCKASGYTFTSYGISWVRQAPGQGLEWMGWISAYNGNTNYAQKLQGRVTMTTDTSTSTAYMELRSLRSDDTAVYYCARGRITIFGVEYYYGMDVWGQGTTVTVSS
VL: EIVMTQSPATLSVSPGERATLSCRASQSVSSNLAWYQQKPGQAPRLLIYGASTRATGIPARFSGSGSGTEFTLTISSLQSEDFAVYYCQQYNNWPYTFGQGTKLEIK

One assay deals with SARS-CoV-2 spike (S) protein (SARS-CoV-2, UniProt P0DTC2 14-1208).
B1 had a Kd of 12.7 nM, a koff of 0.000486 s⁻¹ and a kon of 38100 M⁻¹ s⁻¹.
For B2, in that order: 1.69 nM, 0.000487 s⁻¹ and 289000 M⁻¹ s⁻¹.
As to B3, the Kd was 3.65 nM, the koff worked out at 9.66e-05 s⁻¹ and the kon is 26500 M⁻¹ s⁻¹.
Take B4: binding was characterised by a dissociation constant (Kd) of 0.441 nM, the koff was 6.67e-05 s⁻¹ and the kon was determined as 151000 M⁻¹ s⁻¹.
The molecule B5 gave a Kd of 37.4 nM, a koff of 0.000808 s⁻¹ and a kon of 21600 M⁻¹ s⁻¹.
In the same order, the values of B6 are 6.66 nM, 0.000207 s⁻¹ and 31100 M⁻¹ s⁻¹.
In the same order, the values of B7 are 0.837 nM, 6.53e-05 s⁻¹ and 78000 M⁻¹ s⁻¹.
For B8, in that order: 1.4 nM, 0.000145 s⁻¹ and 104000 M⁻¹ s⁻¹.

The target in another assay is SARS-CoV-2 spike protein (SARS-CoV-2, UniProt P0DTC2 14-1208).
In the case of B9, the Kd is at most 0.0125 nM, the koff is at most 1e-05 s⁻¹ and the kon stood at 802000 M⁻¹ s⁻¹.
B10 displayed a Kd of 0.313 nM, a koff of 2.95e-05 s⁻¹ and a kon of 94100 M⁻¹ s⁻¹.
B11 displayed a Kd of at most 0.315 nM, a koff of at most 1e-05 s⁻¹ and a kon of 31700 M⁻¹ s⁻¹.
On to B12, for which the Kd turned out to be 1.28 nM, the koff came out at 0.000624 s⁻¹ and the kon was determined as 488000 M⁻¹ s⁻¹.
In the same order, the values of B13 are 2.8 nM, 0.000349 s⁻¹ and 125000 M⁻¹ s⁻¹.
For B14, in that order: 1.32 nM, 3.52e-05 s⁻¹ and 26600 M⁻¹ s⁻¹.
In the same order, the values of B15 are at most 0.0169 nM, at most 1e-05 s⁻¹ and 591000 M⁻¹ s⁻¹.
B16 yielded a Kd of 3.46 nM, a koff of 0.000318 s⁻¹ and a kon of 91900 M⁻¹ s⁻¹.
Take B17: the Kd is 7.93 nM, the koff was 0.000291 s⁻¹ and the kon worked out at 36700 M⁻¹ s⁻¹.
For B18, in that order: at most 0.37 nM, at most 1e-05 s⁻¹ and 27000 M⁻¹ s⁻¹.
For B19, in that order: 2.14 nM, 6.48e-05 s⁻¹ and 30400 M⁻¹ s⁻¹.
The molecule B20 came in with a Kd of 2.05 nM, a koff of 0.000329 s⁻¹ and a kon of 161000 M⁻¹ s⁻¹.
